Measurements: publication PMC4672733 (Immunity, 2015)

Molecular target: T1, GST-CARD9 (human, UniProt Q9H257 1-536)
T1 sequence (looked up): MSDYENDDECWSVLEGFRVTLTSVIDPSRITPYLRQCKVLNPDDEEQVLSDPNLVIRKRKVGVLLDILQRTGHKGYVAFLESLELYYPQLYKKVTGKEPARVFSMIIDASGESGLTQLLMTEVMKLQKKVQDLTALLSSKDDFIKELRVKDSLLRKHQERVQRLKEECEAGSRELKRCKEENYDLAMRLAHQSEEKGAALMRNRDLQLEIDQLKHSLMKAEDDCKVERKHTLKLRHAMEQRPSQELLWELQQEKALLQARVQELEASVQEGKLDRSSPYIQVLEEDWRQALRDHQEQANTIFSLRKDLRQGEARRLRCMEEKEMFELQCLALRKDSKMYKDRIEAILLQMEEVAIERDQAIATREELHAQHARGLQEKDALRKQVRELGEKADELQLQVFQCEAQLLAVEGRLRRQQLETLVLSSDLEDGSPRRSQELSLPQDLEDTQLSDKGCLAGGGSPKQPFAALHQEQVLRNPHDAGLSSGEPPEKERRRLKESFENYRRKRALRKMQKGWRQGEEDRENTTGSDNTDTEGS
Assay: ELISA

B1: purified FLAG-tagged CARD9 WT (natural protein, human, UniProt Q9H257 1-536, looked up)
chain: MSDYENDDECWSVLEGFRVTLTSVIDPSRITPYLRQCKVLNPDDEEQVLSDPNLVIRKRKVGVLLDILQRTGHKGYVAFLESLELYYPQLYKKVTGKEPARVFSMIIDASGESGLTQLLMTEVMKLQKKVQDLTALLSSKDDFIKELRVKDSLLRKHQERVQRLKEECEAGSRELKRCKEENYDLAMRLAHQSEEKGAALMRNRDLQLEIDQLKHSLMKAEDDCKVERKHTLKLRHAMEQRPSQELLWELQQEKALLQARVQELEASVQEGKLDRSSPYIQVLEEDWRQALRDHQEQANTIFSLRKDLRQGEARRLRCMEEKEMFELQCLALRKDSKMYKDRIEAILLQMEEVAIERDQAIATREELHAQHARGLQEKDALRKQVRELGEKADELQLQVFQCEAQLLAVEGRLRRQQLETLVLSSDLEDGSPRRSQELSLPQDLEDTQLSDKGCLAGGGSPKQPFAALHQEQVLRNPHDAGLSSGEPPEKERRRLKESFENYRRKRALRKMQKGWRQGEEDRENTTGSDNTDTEGS
B1: binds.
